According to US10006080B2, “High-selectivity contact activation inhibitor based on infestin-4” (OBSCHESTVO S OGRANICHENNOY OTVETSTVENNOSTYU …, priority 2013, dated 2018):

Tests used:
[1] = biological target: T1, fXIa (Homo sapiens, UniProt P03951); experiment: Chromogenic test of protease inhibition in buffer, fXIa (substrate S-2366); assay type: biochemical; settings: buffer solution, summary of Table 2
T1 construct: factor XI into its active form, factor XIa (fXIa)
Procedure: In order to assess selectivity of the fXIIa inhibition by the polypeptide comprising the sequence of the infestin-4 mutant MutB, its inhibitory activity in buffer solution against the purified coagulation factors was determined. The polypeptide's activity was compared with the known fXIIa inhibitors: CTI, infestin-4, infestin-4-based mutant Mut15, LCTI-III. […] The standard deviation amounted to about 50% of the average value; each value was measured by performing 2-3 repeats.
To determine the inhibition activity of such proteins as MutB, CTI, Inf4, Mut15, and LCTI-III as related to different coagulation proteases in a buffer, the chromogenic test was used: the mixture of protease and inhibitor was incubated in the wells of the plate for 15 minutes at 37° C., after which the chromogenic substrate solution was added to the mixture, and the protease activity was measured as the rate of chromogenic product formation at 37° C.
Chromogenic substrates included a p-nitroanilide group cleaved by the corresponding proteases. After cleavage of the p-nitroanilide group from the substrate molecule, the group absorption spectrum changes, and the change of concentration of such product within time can be detected at the light wavelength of 405 nm using a plate spectrophotometer. To build a dependence curve of the protease activity from the inhibitor concentration, different inhibitor concentrations were added into several samples with the same protease concentration. After that, the inhibitor concentration able to decrease the protease activity by 50% (IC50) was determined. The inhibition constant Ki was calculated using the Cheng-Prusoff equation (Ki=IC50/(1+S/KM)), where S is the initial substrate concentration, KM is the Michaelis-Menten constant of the substrate to the protease.
Native infestin-4 and its mutants MutB and Mut15 used here were fusion proteins with thioredoxin I E. coli containing polyhisticline clusters. […]

[2] = test system: contact activation; experiment: Thrombodynamics analyzer T-2, artifact clots far from the TF activator in normal frozen-thawed PFP; assay type: biochemical, human; settings: MutB 20 μM, CTI 15 μM; for cuvette area occupied by artifact clots far from the activator: 30 minutes after activation, whole cuvette area without inhibitor; for suppression of contact activation, formation of artifact clots: 30 minutes after assay start, n=4
Procedure: The assay included the following steps: thawing of a frozen PFP sample, adding to it of a contact activation inhibitor and incubating the resulting mixture, sample recalcification and its placing into the measuring cuvette channel, bringing the sample into contact with the TF immobilized at the end of a special insert-activator, and detecting the appearance and growth of fibrin clots in the consequent photography mode. The frozen PFP sample was obtained preliminarily through collection of blood into sodium citrate-containing tubes from several (at least five) healthy donors and subsequent 2 stages of centrifugation and freezing of the prepared plasma at −80° C. During the assay arrangement, the fibrin clot was growing from the insert-activator; appearance of additional clots in the cuvette area far from the activator was also possible, as shown on FIG. 2. Clots in the cuvette area far from the activator can be due to the hypercoagulation state of the sample or to the artifacts of sample contact activation from the cuvette walls (artifact clots): the latter must be suppressed for the said test to allow distinguishing between the normal and hypercoagulation states of the coagulation system. To do that, before activating the sample through bringing it into contact with TF, an efficient quantity of the contact activation inhibitor was added into the sample: in this case, we used the polypeptide comprising the sequence of an infestin-4 mutant MutB. To compare the efficiency of the claimed polypeptide comprising the sequence of an infestin-4 mutant MutB with the contact activation inhibitor CTI known in the field, the said inhibitors were added into 2 separate samples of normal frozen PFP plasma. We used such concentrations of the inhibitors at which the APTT increases nearly four-fold: 20 μM in case of MutB and 15 μM in case of CTI. […] For each sample, 4 repeated measurements were performed. 30 minutes after the assay start, images of the fibrin clot in measuring cuvettes-4 cuvettes for each sample-were obtained: they are shown on FIG. 3.
The cuvette area occupied by artifact clots (in % from the total cuvette area; n=4) was plotted for 3 samples of normal frozen plasma at separate time points (FIG. 4, averaged values at each time point). Without adding the contact activation inhibitor, artifact clots appear in the cuvette area far from the activator nearly 15 minutes after activation and occupy the whole cuvette area after 30 minutes. However, after addition of CTI or MutB, such clots occupy not more than 15% of the cuvette area 30 minutes after activation. […]

T1 sequence (P03951 388-625 limits assumed): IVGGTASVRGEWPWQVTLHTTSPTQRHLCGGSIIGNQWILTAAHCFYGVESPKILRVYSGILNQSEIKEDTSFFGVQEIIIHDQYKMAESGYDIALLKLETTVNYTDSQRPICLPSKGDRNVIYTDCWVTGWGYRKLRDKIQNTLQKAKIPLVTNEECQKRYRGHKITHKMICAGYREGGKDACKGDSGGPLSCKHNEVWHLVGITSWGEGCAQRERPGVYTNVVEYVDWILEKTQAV
T1 sequence (P03951 19-387 partner limits assumed): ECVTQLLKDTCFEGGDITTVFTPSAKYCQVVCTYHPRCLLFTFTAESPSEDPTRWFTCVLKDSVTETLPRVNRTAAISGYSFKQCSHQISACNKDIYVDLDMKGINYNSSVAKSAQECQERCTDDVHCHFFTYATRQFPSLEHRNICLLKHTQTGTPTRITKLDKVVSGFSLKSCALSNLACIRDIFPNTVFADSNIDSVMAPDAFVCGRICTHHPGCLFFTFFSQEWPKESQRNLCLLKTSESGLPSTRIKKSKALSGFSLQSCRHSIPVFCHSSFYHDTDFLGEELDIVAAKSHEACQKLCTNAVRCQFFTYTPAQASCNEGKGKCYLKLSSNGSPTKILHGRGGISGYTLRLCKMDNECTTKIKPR

“MutB: polypeptide comprising the sequence of infestin-4 mutant MutB (SEQ ID NO: 1), inhibition loop TRNFVA; high-selectivity fXIIa inhibitor (EVRNPCACTRNFVAVCGSDGKTYGNPCMLNCAAQTKVPGLKLVHEGRCQRSNVEQF; Infestin-4 mutant MutB)” was tested, and the “inhibition of fXIa (in words)” value [1] was “do not inhibit”, the “cuvette area occupied by artifact clots far from the activator” value [2] was “not more than 15%” and the “suppression of contact activation, formation of artifact clots” value [2] was “almost complete suppression”.

B1: corn trypsin inhibitor (other, UniProt P01088 29-138, looked up)
chain: SAGTSCVPGWAIPHNPLPSCRWYVTSRTCGIGPRLPWPELKRRCCRELADIPAYCRCTALSILMDGAIPPGPDAQLEGRLEDLPGCPREVQRGFAATLVTEAECNLATIS
notes: Isolated from corn; also called CTI
B1 was tested, and the “inhibition of fXIa (in words)” value [1] was “inhibits”, the “cuvette area occupied by artifact clots far from the activator” value [2] was “not more than 15%” and the “suppression of contact activation, formation of artifact clots” value [2] was “almost complete suppression”.
